# Read-outs that look alike come from different tables or passages of the source. Where a SMILES comes first, the peptide text is derived from it. Bridges are numbered along the chain shown (N, C = ends). [ ]: non-standard residue; d: D form. The star is where a group is joined. DOTA = O=C(O)CN1CCN(CC(=O)O)CCN(CC(=O)*)CCN(CC(=O)O)CC1; dPhe(4-NHCONH2) = NC(=O)Nc1ccc(C[C@@H](N)C(=O)O)cc1; Dihydroorotyl(S) = O=C1C[C@@H](C(=O)*)NC(=O)N1; Phe(4-Cl) = N[C@@H](Cc1ccc(Cl)cc1)C(=O)O; Phe(4-NH2) = Nc1ccc(C[C@H](N)C(=O)O)cc1
# What was measured:
# [1] = test system: patients with progressive, SSTR-positive NETs; test: Blood-based bone marrow dosimetry (part A); format: in vivo, human; conditions: cycles 1–3, 11 evaluated patients, median
# Description: (§1) To generate pharmacokinetic data, blood samples (2 mL) were taken at the stop of infusion (0 min) and 5, 30, and 60 min, 4 h, and 1, 2, 3, and 6 days after the end of each [^177Lu]Lu-satoreotide tetraxetan administration. Urine samples were collected over three intervals within 48 h (0–6 h, 6–24 h, and 24–48 h in part A; 0–4 h, 4–24 h, and 24–48 h in part B) following the first treatment cycle of [^177Lu]Lu-satoreotide tetraxetan. Total activity concentrations in whole blood and urine were determined locally, using a gamma counter calibrated for lutetium-177. In two selected study centres, additional blood samples (2 mL) were collected at 1 min, 4 h, and 1, 2, 3, and 6 days after each [^177Lu]Lu-satoreotide tetraxetan administration to evaluate potential radioactive metabolites in plasma.
# Patient-specific dosimetry calculations were performed after each treatment cycle in both parts A and B, using the absorbed dose calculation features of the NUKDOS software for image-based dosimetry calculations. The NUKDOS software was chosen as it allowed for an integral approach to organ dosimetry (including image quantification, time-activity curve-fitting and dosimetry calculation). For the bone marrow, both image-based and blood-based calculations were performed in part A [28, 29]. In part B, only image-based bone marrow dosimetry was performed. […]
# [2] = Urinary excretion of radioactivity within 48 h (gamma counter); format: in vivo, human; conditions: first treatment cycle; for dose excreted: human, urine, iv, total radioactivity, read-out: Cumulative urinary excretion within 48 h
# Description: as §1
compound,measurement,setting,value
"C[C@@H](O)[C@@H]1NC(=O)[C@H](CCCCN)NC(=O)[C@@H](Cc2ccc(NC(N)=O)cc2)NC(=O)[C@H](Cc2ccc(NC(=O)[C@@H]3CC(=O)NC(=O)N3)cc2)NC(=O)[C@H](NC(=O)[C@H](Cc2ccc(Cl)cc2)NC(=O)CN2CCN(CC(=O)O)CCN(CC(=O)O)CCN(CC(=O)O)CC2)CSSC[C@@H](C(=O)N[C@H](Cc2ccc(O)cc2)C(N)=O)NC1=O [[^177Lu]Lu-satoreotide tetraxetan, metal not drawn] ({DOTA}-[Phe(4-Cl)][dC][Phe(4-NH2)](Dihydroorotyl(S))[dPhe(4-NHCONH2)]KTC[dY]-NH2; disulfide 2-7 (inferred); C-terminus assumed)","Cumulative absorbed dose, bone marrow, blood-based method",[1],0.3 Gy
same,Cumulative urinary excretion within 48 h,[2]; patients treated with 4.5 GBq,57–66%
same,Radioactivity excreted via urine within 48 hours,"[2]; patients treated with 4.5 GBq, range of medians across groups",2.6–3.0 GBq
same,Radioactivity excreted via urine within 48 hours,"[2]; patients treated with 6 GBq, median",3.4 GBq
same,dose excreted,[2]; patients treated with 4.5 GBq,57 to 66%
same,dose excreted,[2]; patients treated with 6 GBq,~57%
